Source: the supplement of paper PMC10724198
± gives the standard deviation of the averaged measurements.

Test system: Saccharomyces cerevisiae
Assay: protein stability index of tFT-peptide fusion (C-terminal peptide) (PSI (0-1 scale)); higher = more stable (slower turnover)
Settings: genetic background: wild type; temperature: 30 C
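Also: PSI is a weighted mean of sequencing reads over stability bins, variants kept only with over 10 reads, mCherry proximal and sfGFP distal, peptide attached via GGGS linker.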

Row | Sequence | protein stability index
1 | AHKSFRMVDGNR | 0.678 ± 0.066
2 | CGGVLAQREVSG | 0.637 ± 0.021
3 | TQVGLGSFYSLG | 0.697 ± 0.079
4 | LAESTSYNQRRP | 0.701 ± 0.06
5 | MGGVEMSNRIWE | 0.663 ± 0.009
6 | FVSRLWKIPTES | 0.583 ± 0.034
7 | LPIKRLPLPTVP | 0.682 ± 0.015
8 | SKNQQKKCQMIT | 0.534 ± 0.038
9 | SRAAGILCVVQI | 0.615 ± 0.084
10 | LIRYVPFSYVLV | 0.599 ± 0.007
11 | ICGLLFNLCKHD | 0.622 ± 0.045
12 | PLVSLLPHPRAA | 0.495 ± 0.094
13 | VFWVFDGFEGFI | 0.825 ± 0.022
14 | AAGLNSWLRERW | 0.805 ± 0.032
15 | KKKKKKKKKKKR | 0.633 ± 0.009
16 | GSRSKLPICGCL | 0.809 ± 0.18
17 | QKTLKPEQVAEH | 0.68 ± 0.027
18 | PPPSSELTFLHY | 0.797 ± 0.067
19 | DFGVRLGGPRTL | 0.645 ± 0.017
20 | CCGSSPLPPFTS | 0.724 ± 0.055
21 | EERVEYHVALEV | 0.664 ± 0.024
22 | GENTRKNNVVGE | 0.69 ± 0.017
23 | PFPPLRSLPRPP | 0.737 ± 0.099
24 | RFGSGYLRRYTH | 0.776 ± 0.011
25 | FVGWGLGVGTHD | 0.679 ± 0.0054
26 | KQFGIHSRVFLM | 0.547 ± 0.021

Row | Sequence | protein stability index
27 | ALPPPPPHPSPS | 0.717 ± 0.019
28 | PPPRPGFCLFLP | 0.674 ± 0.05
29 | SISQSSSLGLED | 0.677 ± 0.046
30 | FVFSMDAFRSGL | 0.665 ± 0.045
31 | PAPPPLPSAAPP | 0.706 ± 0.14
32 | HGTAQGVRRQGV | 0.711 ± 0.16
33 | DRTQKIQNNKWM | 0.622 ± 0.014
34 | LFPFPSPLPPPL | 0.766 ± 0.0092
35 | PPLPPRSPSAPL | 0.695 ± 0.034
36 | LLTWENWVVPRL | 0.738 ± 0.053
37 | GLVCRKGSMGVR | 0.671 ± 0.057
38 | AGSAAGGAWSGG | 0.695 ± 0.019
39 | GWSTKSTYHKPT | 0.732 ± 0.025
40 | LANGACLLRLNF | 0.54 ± 0.017
41 | FLWLRLLEAFWF | 0.603 ± 0.032
42 | RPYGKQTERYVK | 0.672 ± 0.029
43 | DTDRRWLGTFLV | 0.534 ± 0.023
44 | PSPARLFVSPSP | 0.649 ± 0.04
45 | PHLFDPLVPASF | 0.682 ± 0.048
46 | LVSFLFAPLPLS | 0.704 ± 0.038
47 | TNFGALNFDYAC | 0.772 ± 0.028
48 | VLLGTVRCCFLG | 0.556 ± 0.022
49 | LTLGSSGTSFLS | 0.698 ± 0.016
50 | PLPPPPALLFPP | 0.733 ± 0.054
51 | FPSSRGLGGTMG | 0.658 ± 0.017
52 | GFNRRVWRGLGV | 0.721 ± 0.053

Row | Sequence | protein stability index
53 | FYSPSAPSPFFL | 0.797 ± 0.052
54 | HDPRVGDNAHFV | 0.641 ± 0.099
55 | LPSPSATPPRPP | 0.634 ± 0.034
56 | PISGFLRPPPPF | 0.663 ± 0.012
57 | QKKELKTKKKER | 0.663 ± 0.016
58 | QCESVRLNFGGR | 0.704 ± 0.021
59 | RYLVLPDLCPIS | 0.736 ± 0.1
60 | LHCKRPTPLTDS | 0.657 ± 0.019
61 | KAIVKKCTDSED | 0.679 ± 0.011
62 | SHPWLLDCVTTF | 0.706 ± 0.044
63 | KNKIKITKRKRK | 0.734 ± 0.0099
64 | DLMLSVDLNIDG | 0.699 ± 0.0084
65 | EEGGTRGASAVV | 0.7134 ± 0.0024
66 | GKCKRYENISKR | 0.629 ± 0.0095
67 | MMMRKAPTARVS | 0.637 ± 0.024
68 | SQAALLIPLFSL | 0.681 ± 0.03
69 | RKSCKRNERIRK | 0.669 ± 0.035
70 | AGGSVFSVLVDE | 0.665 ± 0.0081
71 | GGGREGNGRERS | 0.594 ± 0.053
72 | WIFHHSKTTLAP | 0.7158 ± 0.0052
73 | TTSGCARLSHMV | 0.709 ± 0.086
74 | PSPPSHRFPAIP | 0.697 ± 0.0081
75 | APRPLPPPPSPC | 0.726 ± 0.027
76 | PNLRPPSPPSLL | 0.714 ± 0.049
77 | QWIINVSRSIRK | 0.654 ± 0.031
78 | SPPSPPSPPPLV | 0.745 ± 0.013

Row | Sequence | protein stability index
79 | APPLQLSSPPPS | 0.746 ± 0.051
80 | PLWALVRDVRVG | 0.652 ± 0.033
81 | RPVPVPTALIPS | 0.61 ± 0.013
82 | IVQETKYFVRRS | 0.685 ± 0.082
83 | RASFLLPPPAPP | 0.6311 ± 0.0049
84 | QTKSPAKREKTC | 0.665 ± 0.058
85 | VGGRGLVWVWGG | 0.631 ± 0.059
86 | KKNLHEQIGEAI | 0.687 ± 0.051
87 | RVLLYWRGSGVL | 0.577 ± 0.071
88 | GRLPPYLSRRLR | 0.7039 ± 0.0012
89 | VASGLVLFSGGV | 0.655 ± 0.0076
90 | GPIGVMLCNHHS | 0.674 ± 0.015
91 | PPPQSPPLLLVL | 0.548 ± 0.021
92 | RCGGGGSVSFWW | 0.693 ± 0.049
93 | LFFLPSVLPFHC | 0.636 ± 0.025
94 | PPPASPLPPASP | 0.667 ± 0.031
95 | ARGSTGLKLRWG | 0.706 ± 0.0096
96 | YRSTPTGPPRPT | 0.758 ± 0.13
97 | GLSSGLWAFWWP | 0.749 ± 0.049
98 | DKMLDIETNNKH | 0.654 ± 0.033
99 | CFVIFFSSPGVC | 0.583 ± 0.03
100 | EVEGGLSFSARG | 0.706 ± 0.074
101 | LALHWVESRFKH | 0.71 ± 0.06
102 | CTRLSQTSMGRG | 0.696 ± 0.043
103 | LGGGGGGGGRLR | 0.618 ± 0.0091
104 | AFPHRLTRGYDQ | 0.666 ± 0.038

Row | Sequence | protein stability index
105 | GGGMRLVKRACY | 0.64 ± 0.031
106 | RVPDNYLKWSYI | 0.719 ± 0.051
107 | FRRGGVERGVEG | 0.723 ± 0.026
108 | PPHPSPPHPSSA | 0.752 ± 0.01
109 | GLVVWFFQSPHF | 0.597 ± 0.036
110 | KKKRKEEIKKKK | 0.742 ± 0.012
111 | WGLGLLGGCWGV | 0.679 ± 0.09
112 | FWGCFVWFCVCG | 0.509 ± 0.023
113 | SKRIKIEFYVNQ | 0.688 ± 0.12
114 | LRFTYSFIPPSV | 0.631 ± 0.00064
115 | SPPPPRPPSQPS | 0.674 ± 0.021
116 | RKCMSNSKNNNE | 0.669 ± 0.018
117 | ALSHGPAPRTRS | 0.649 ± 0.048
118 | AVRYFKLCRSCL | 0.65 ± 0.012
119 | SVPTPPLVPSIS | 0.665 ± 0.07
120 | SGGCDNGRMRWV | 0.682 ± 0.07
121 | IPSCSTPAPHLP | 0.677 ± 0.022
122 | MVGAWCAGIPGI | 0.668 ± 0.0022
123 | WRRPKAGRHAPC | 0.685 ± 0.0065
124 | KKRKVKKKKPNG | 0.581 ± 0.033
125 | AMVATAYINPHE | 0.712 ± 0.037
126 | RVYTSAWAPDWR | 0.62 ± 0.056
127 | KKKKQKKRETTK | 0.636 ± 0.012
128 | LPPRPPRRPESP | 0.663 ± 0.055
129 | SQFWGCALFIEH | 0.652 ± 0.018
130 | LLSPFLPPPLFV | 0.563 ± 0.019

Row | Sequence | protein stability index
131 | CVGVEDFFFACF | 0.703 ± 0.029
132 | PLSRYPSPSLPL | 0.693 ± 0.0076
133 | SFGLAPLSSFFC | 0.705 ± 0.078
134 | YQDGLCYYFCTT | 0.559 ± 0.02
135 | AIKTVINYRDMM | 0.608 ± 0.0024
136 | LPPVLPLLPSPP | 0.692 ± 0.044
137 | PPSSPCLRPSPP | 0.683 ± 0.037
138 | VWSVDVSGCVVR | 0.641 ± 0.031
139 | SAPRDLYIHFSR | 0.7371 ± 0.0014
140 | WKKDTKTKKKKN | 0.695 ± 0.034
141 | SIVRWLTSSLIH | 0.787 ± 0.17
142 | VLGRRGLVWKRV | 0.5993 ± 0.0033
143 | YLLDTLTAAREI | 0.673 ± 0.016
144 | GVCCLWVGFQGG | 0.704 ± 0.017
145 | SGGWGGGDCVGA | 0.69 ± 0.014
146 | VGESGEGVVMGE | 0.677 ± 0.08
147 | KKQKKKPQNKKK | 0.954 ± 0.066
148 | KQNRKEKVQRNR | 0.709 ± 0.054
149 | GVGLKMLSVGDI | 0.6119 ± 0.002
150 | MGIVEGIGASSL | 0.662 ± 0.036
151 | GNSNDPALQPKQ | 0.68 ± 0.044
152 | RKSSLVARTGMI | 0.623 ± 0.071
153 | RTLSSFSPGYLF | 0.8548 ± 0.0033
154 | WSRGGVLGVCCG | 0.536 ± 0.031
155 | SGGGVGGQVAVG | 0.715 ± 0.087
156 | HLFPSPPPSTLP | 0.495 ± 0.045

Row | Sequence | protein stability index
157 | RDGLWCFSEFLG | 0.731 ± 0.048
158 | TPGGDPLAPRQS | 0.641 ± 0.061
159 | PPPLPPAPPPFP | 0.698 ± 0.017
160 | GWRFGKVCGLGG | 0.726 ± 0.07
161 | RWSVLSRSCSSY | 0.729 ± 0.034
162 | PPVLQPLLALAL | 0.535 ± 0.015
163 | AGALFRLPSVFD | 0.727 ± 0.076
164 | SSPLLSISPHFP | 0.666 ± 0.042
165 | LGGGGGLTAAGV | 0.743 ± 0.016
166 | WANGEFSLGCGG | 0.712 ± 0.017
167 | AFPGCRPFRPLH | 0.709 ± 0.056
168 | PPPALTHLLPLP | 0.678 ± 0.058
169 | GVSVSSSFLNGC | 0.669 ± 0.019
170 | PLHDGRFANDSF | 0.674 ± 0.043
171 | LASGSVSCFWSG | 0.71 ± 0.021
172 | PPPPSSPFPHAS | 0.697 ± 0.03
173 | SSHVPPDLPSLH | 0.692 ± 0.031
174 | RGARTGGGRDGS | 0.705 ± 0.025
175 | SLLFPPSPPPPA | 0.673 ± 0.011
176 | ATKAKKGTMSHE | 0.652 ± 0.051
177 | LSPTQSTLPTPP | 0.673 ± 0.01
178 | WAGVTLRLRSAV | 0.682 ± 0.055
179 | LLRVYNQNGERN | 0.734 ± 0.044
180 | LLHVPIVFPRLI | 0.62 ± 0.043
181 | MNHHSDCLLRLW | 0.648 ± 0.0084
182 | PTLPGEQPRSWQ | 0.6701 ± 0.0049

Row | Sequence | protein stability index
183 | VALEWGAVRVEG | 0.569 ± 0.088
184 | PPFPPRPLPPIP | 0.693 ± 0.017
185 | FCGLVIRFSEKV | 0.653 ± 0.017
186 | RVCFVTNLVDVT | 0.721 ± 0.096
187 | CAGPLLIPPLSL | 0.6895 ± 0.0042
188 | LPHSYFCPTFFF | 0.675 ± 0.019
189 | PLPPCCLPPSAF | 0.6857 ± 0.0061
190 | TVTSTLKKHKRG | 0.669 ± 0.034
191 | KFRLAGSVARSG | 0.684 ± 0.013
192 | PFPPPSPPPPSS | 0.6785 ± 0.003
193 | GHKVTKDAIRIR | 0.6545 ± 0.0047
194 | AKVKIENKHRRK | 0.716 ± 0.015
195 | TSRCQIGIALGG | 0.695 ± 0.12
196 | RRWGLIGVMSYL | 0.732 ± 0.089
197 | ICITIRQTRENK | 0.668 ± 0.027
198 | HPTSHRPLPAAF | 0.724 ± 0.0075
199 | LFERSFSSHPVL | 0.769 ± 0.13
200 | PRDSLMRLDCRL | 0.691 ± 0.022
201 | VPPFGPTPLASI | 0.797 ± 0.073
202 | QGNEQFRYKILQ | 0.598 ± 0.098
